B1: LINE1-mini (parent)
chain: GGCAGAGCUCAACACAGCGUGGCAAAGUGGCUGUGGCUAGACUGCC

Variants of B1 are the subject of this series. The series can be described thus: self-cleavage, relative activity (ratio to wild type); higher = more cleavage; in vitro, sequencing; the parent is a self-cleaving ribozyme.
C15A C42A: the self-cleavage was determined as 0.06.

Regarding C15A C42G, the self-cleavage was 0.04.

With C15A C42U, the self-cleavage came to 0.05.

Regarding C15G G17A, the self-cleavage turned out to be 0.05.

C15G G17C: the self-cleavage amounted to 0.04.

C15G G17U: the self-cleavage worked out at 0.05.

On to C15A G35U, for which the self-cleavage stood at 0.08.

For C15A G35C, the self-cleavage turned out to be 0.05.

Take C15A G35A: the self-cleavage came out at 0.1.

For the variant A14U A25G, the self-cleavage was found to be 0.1.

In the case of A14U A25U, the self-cleavage is 0.32.

Take A14U A25C: the self-cleavage amounted to 0.3.

C15U C31G: the self-cleavage came to 0.06.

C15U C31U: the self-cleavage is 0.09.

As to C15U C31A, the self-cleavage came out at 0.06.

Turning to C15U A41C, the self-cleavage came out at 0.08.

As for C15U A41G, the self-cleavage was found to be 0.25.

Turning to C15U A41U, the self-cleavage stood at 0.33.

For the variant A14U C15A, the self-cleavage stood at 0.16.

For the variant A14U C15U, the self-cleavage is 0.18.

For A14U C15G, the self-cleavage turned out to be 0.04.

C15A G30U: the self-cleavage was 0.07.

Take C15A G30C: the self-cleavage stood at 0.05.

C15A G30A: the self-cleavage was determined as 0.06.

For C15U A24G, the self-cleavage amounted to 1.53.

Take C15U A24U: the self-cleavage stood at 0.32.

As for C15U A24C, the self-cleavage stood at 0.25.

With C15A A25C, the self-cleavage was determined as 0.04.

On to C15A A25G, for which the self-cleavage is 0.12.

Consider C15A A25U, for which the self-cleavage was 0.07.

On to C15G G22C, for which the self-cleavage was found to be 0.03.

Take C15G G22A: the self-cleavage worked out at 0.15.

For C15G G22U, the self-cleavage stood at 0.3.

For C15A A24U, the self-cleavage is 0.12.

Regarding C15A A24G, the self-cleavage worked out at 0.07.

Regarding C15A A24C, the self-cleavage came to 0.04.

C15U G22C: the self-cleavage was 0.53.

Turning to C15U G22U, the self-cleavage came out at 0.78.

C15U G22A: the self-cleavage came out at 1.21.

Consider C15G C46U, for which the self-cleavage stood at 0.06.

With C15G C46G, the self-cleavage was found to be 0.03.

Regarding C15G C46A, the self-cleavage is 0.11.

On to A14U G27C, for which the self-cleavage was 0.16.

Consider A14U G27U, for which the self-cleavage turned out to be 0.29.

Take A14U G27A: the self-cleavage was 0.37.

On to C15A G27C, for which the self-cleavage was 0.1.

Consider C15A G27A, for which the self-cleavage was 0.15.

With C15A G27U, the self-cleavage amounted to 0.09.

Turning to A14U C23G, the self-cleavage was 0.15.

Take A14U C23U: the self-cleavage is 0.31.

A14U C23A: the self-cleavage turned out to be 0.65.

With C15A G29C, the self-cleavage is 0.18.

On to C15A G29U, for which the self-cleavage stood at 0.12.

For C15A G29A, the self-cleavage amounted to 0.16.

A14U U38G: the self-cleavage was 0.06.

Turning to A14U U38C, the self-cleavage was found to be 0.17.

On to A14U U38A, for which the self-cleavage was 0.34.

Regarding C15A C18G, the self-cleavage was determined as 0.09.

Consider C15A C18A, for which the self-cleavage stood at 0.04.

For the variant C15A C18U, the self-cleavage was 0.14.

On to C15G A24G, for which the self-cleavage turned out to be 0.03.

With C15G A24U, the self-cleavage stood at 0.02.

C15G A24C: the self-cleavage is 0.02.

A14U C31A: the self-cleavage was determined as 0.06.

As to A14U C31U, the self-cleavage was 0.04.

In the case of A14U C31G, the self-cleavage is 0.04.

As to C15U C46G, the self-cleavage worked out at 0.33.

With C15U C46A, the self-cleavage stood at 0.92.

With C15U C46U, the self-cleavage was 0.43.

For C15A A39U, the self-cleavage worked out at 0.06.

For the variant C15A A39G, the self-cleavage is 0.08.

Take C15A A39C: the self-cleavage turned out to be 0.06.

Turning to C15G C23A, the self-cleavage was 0.06.

With C15G C23G, the self-cleavage amounted to 0.12.

C15G C23U: the self-cleavage turned out to be 0.08.

As for C15A C46U, the self-cleavage stood at 0.12.

Take C15A C46G: the self-cleavage was found to be 0.05.

With C15A C46A, the self-cleavage is 0.09.

C15G G30A: the self-cleavage turned out to be 0.07.

With C15G G30C, the self-cleavage turned out to be 0.08.

With C15G G30U, the self-cleavage stood at 0.03.

With C15G G27A, the self-cleavage was 0.05.

Turning to C15G G27C, the self-cleavage worked out at 0.05.

Consider C15G G27U, for which the self-cleavage came out at 0.04.

For the variant A14U G40C, the self-cleavage amounted to 0.08.

On to A14U G40U, for which the self-cleavage is 0.11.

On to A14U G40A, for which the self-cleavage was 0.05.

With C15G, the self-cleavage amounted to 0.07.

Take C15U: the self-cleavage was determined as 1.03.

As for C15A, the self-cleavage was found to be 0.1.

Consider A14U C18A, for which the self-cleavage was determined as 0.11.

Consider A14U C18U, for which the self-cleavage was 0.08.

As for A14U C18G, the self-cleavage is 0.19.

Regarding C15A A41U, the self-cleavage stood at 0.05.

C15A A41C: the self-cleavage came to 0.15.

For C15A A41G, the self-cleavage came out at 0.06.

On to C15U G19A, for which the self-cleavage is 0.98.

Regarding C15U G19C, the self-cleavage is 1.39.

Consider C15U G19U, for which the self-cleavage stood at 0.87.

As to C15G C42G, the self-cleavage came out at 0.1.

Turning to C15G C42A, the self-cleavage amounted to 0.04.

For C15G C42U, the self-cleavage amounted to 0.04.

Consider C15U C45A, for which the self-cleavage came out at 0.21.

On to C15U C45G, for which the self-cleavage was determined as 0.2.

As to C15U C45U, the self-cleavage came to 0.79.

As to A14U G22U, the self-cleavage came to 0.87.

For A14U G22A, the self-cleavage came to 0.35.

Consider A14U G22C, for which the self-cleavage came to 0.27.

In the case of A14U C46U, the self-cleavage was 0.28.

Turning to A14U C46A, the self-cleavage amounted to 0.4.

For A14U C46G, the self-cleavage was found to be 0.19.

For the variant A14U G17A, the self-cleavage came to 0.13.

Regarding A14U G17C, the self-cleavage came out at 0.22.

On to A14U G17U, for which the self-cleavage amounted to 0.1.

As to C15A C31A, the self-cleavage turned out to be 0.05.

Consider C15A C31G, for which the self-cleavage came to 0.03.

On to C15A C31U, for which the self-cleavage worked out at 0.04.

A14U A26G: the self-cleavage is 0.34.

On to A14U A26C, for which the self-cleavage was 0.6.

A14U A26U: the self-cleavage came out at 0.53.

As to C15A G40C, the self-cleavage was determined as 0.07.

As for C15A G40A, the self-cleavage was 0.04.

Take C15A G40U: the self-cleavage was determined as 0.06.

Take A14U C37U: the self-cleavage was 0.03.

Take A14U C37G: the self-cleavage was found to be 0.05.

Turning to A14U C37A, the self-cleavage is 0.08.

Take A14U G30A: the self-cleavage amounted to 0.18.

As to A14U G30U, the self-cleavage is 0.19.

In the case of A14U G30C, the self-cleavage is 0.14.

On to C15G G44A, for which the self-cleavage amounted to 0.03.

On to C15G G44C, for which the self-cleavage is 0.04.

Regarding C15G G44U, the self-cleavage stood at 0.03.

Turning to C15U C42G, the self-cleavage amounted to 0.09.

For the variant C15U C42U, the self-cleavage was found to be 0.11.

Consider C15U C42A, for which the self-cleavage amounted to 0.08.

As to C15U G21U, the self-cleavage turned out to be 1.46.

Consider C15U G21A, for which the self-cleavage was found to be 1.23.

Consider C15U G21C, for which the self-cleavage was 1.81.

For A14U A24G, the self-cleavage stood at 0.79.

In the case of A14U A24C, the self-cleavage was determined as 0.15.

As to A14U A24U, the self-cleavage came to 0.42.

Regarding A14U G44U, the self-cleavage was 0.06.

With A14U G44C, the self-cleavage amounted to 0.2.

For the variant A14U G44A, the self-cleavage worked out at 0.13.

On to C15G U20G, for which the self-cleavage was 0.03.

Take C15G U20A: the self-cleavage was determined as 0.09.

On to C15G U20C, for which the self-cleavage was 0.03.

As to C15A A16U, the self-cleavage was 0.06.

Regarding C15A A16G, the self-cleavage turned out to be 0.07.

As for C15A A16C, the self-cleavage was 0.08.

As to C15G A25C, the self-cleavage amounted to 0.02.

With C15G A25G, the self-cleavage was 0.06.

With C15G A25U, the self-cleavage was 0.04.

In the case of C15A U34C, the self-cleavage was found to be 0.06.

Consider C15A U34A, for which the self-cleavage worked out at 0.59.

Regarding C15A U34G, the self-cleavage is 0.05.

With C15A G19C, the self-cleavage is 0.14.

As for C15A G19U, the self-cleavage stood at 0.09.

As for C15A G19A, the self-cleavage stood at 0.06.

Take A14U G21A: the self-cleavage was 0.62.

With A14U G21C, the self-cleavage stood at 0.57.

On to A14U G21U, for which the self-cleavage is 0.74.

With C15G U34A, the self-cleavage worked out at 0.52.

Regarding C15G U34C, the self-cleavage was 0.03.

C15G U34G: the self-cleavage turned out to be 0.02.

With C15G A41U, the self-cleavage is 0.06.

For C15G A41G, the self-cleavage came out at 0.04.
